Article doi:10.1101/553800 (bioRxiv, 2019)

Biological target: the molecule itself
Assay: crystal structure

B1: hRIO2(1-321) (domain or fragment, human, UniProt Q9BVS4 1-321, looked up)
chain: MGKVNVAKLRYMSRDDFRVLTAVEMGMKNHEIVPGSLIASIASLKHGGCNKVLRELVKHKLIAWERTKTVQGYRLTNAGYDYLALKTLSSRQVVESVGNQMGVGKESDIYIVANEEGQQFALKLHRLGRTSFRNLKNKRDYHKHRHNVSWLYLSRLSAMKEFAYMKALYERKFPVPKPIDYNRHAVVMELINGYPLCQIHHVEDPASVYDEAMELIVKLANHGLIHGDFNEFNLILDESDHITMIDFPQMVSTSHPNAEWYFDRDVKCIKDFFMKRFSYESELFPTFKDIRREDTLDVEVSASGYTKEMQADDELLHPLGP
- binding result: binds
